Where a chain is given by its changes, count along the chain named. Names and notes keep the numbering of the source.
Columns and labels:
Gh-ChrR [1] = target: T1, Gh-ChrR (Novacetimonas hansenii, UniProt D5QFC5); assay: initial velocities, ordered bireactant model with substrate inhibition; type: biochemical; conditions: competitive with chromate, dead-end FMN-enzyme-NADH complex
T1 construct: gene GXY_09224; full length (193 native residues) plus C-terminal 6xHis tag kept; E. coli BL21(DE3), codon-optimised
Excerpt: initial velocities, ordered bireactant model with substrate inhibition on Gh-ChrR | Ki is the dissociation constant of the dead-end product of FMN-Gh-ChrR-NADH

Gh-ChrR [2] = target: T1, Gh-ChrR; assay: X-ray crystal structure, […] Å; absorbance stoichiometry; type: binding; conditions: non-covalent, one FMN per monomer, co-purified
Gh-ChrR [3] = target: T1, Gh-ChrR; assay: chromate reduction rate; type: biochemical; conditions: 200 µM NADPH, 5 µM enzyme, 50 mM Tris-HCl, 100 mM NaCl, pH 7.4
purified protein = substrate: [O]=[Cr](=[O])([OH])[OH]; assay: purified protein; conditions: 100 µM NADH, 5 µM enzyme, 50 mM Tris-HCl, 100 mM NaCl, pH 7.4, 37°C, aerobic
[4] = substrate: NC(=O)C1=CN([C@@H]2O[C@H](COP(=O)(O)OP(=O)(O)OC[C@H]3O[C@@H](n4cnc5c(N)ncnc54)[C@H](O)[C@@H]3O)[C@@H](O)[C@H]2O)C=CC1; assay: initial velocities, ordered bireactant model with substrate inhibition; type: biochemical, Novacetimonas hansenii; conditions: varied chromate and NADH, Tris-HCl pH 7.4
Excerpt: initial velocities, ordered bireactant model with substrate inhibition on […] | KmB is the Michaelis-Menten constant of NADH

[5] = target: the molecule itself; assay: crystal structure; hanging-drop vapor diffusion at room temperature; protein ~9 mg/mL in 20 mM Tris-HCl, 150 mM NaCl, pH 7.4; precipitant 0.5% PEG4000, 10% isopropanol, 0.1 M HEPES pH 7.5; 2.25 Å; four monomers in the asymmetric unit

Q: How did the Ki (Gh-ChrR [1]) turn out when `NC(=O)C1=CN([C@@H]2O[C@H](COP(=O)(O)OP(=O)(O)OC[C@H]3O[C@@H](n4cnc5c(N)ncnc54)[C@H](O)[C@@H]3O)[C@@H](O)[C@H]2O)C=CC1` [NADH] was run?
A: The Ki was 3.5 ± 0.7 µM.

Q: How did the “X-ray crystal structure, 2.25 Å; absorbance stoichiometry” value (Gh-ChrR [2]) turn out when `Cc1cc2nc3c(=O)[nH]c(=O)nc-3n(C[C@H](O)[C@H](O)[C@H](O)COP(=O)(O)O)c2cc1C` [FMN] was run?
A: Its value is “Gh-ChrR crystallized with one molecule of FMN associated with each protein monomer”.

Q: `NC(=O)C1=CN([C@@H]2O[C@H](COP(=O)(O)OP(=O)(O)OC[C@H]3O[C@@H](n4cnc5c(N)ncnc54)[C@H](OP(=O)(O)O)[C@@H]3O)[C@@H](O)[C@H]2O)C=CC1` [NADPH] was tested. Which chromate reduction rate (Gh-ChrR [3]) did it give?
A: The chromate reduction rate was “Both NADH and NADPH support maximal chromate reduction by Gh-ChrR”.

B1: Gluconacetobacter hansenii chromate reductase (Gh-ChrR) (enzyme, Gluconacetobacter hansenii ATCC 23769)
chain: MTTTSPLHFVTLLGSLRKASFNAAVARALPEIAPEGIAITPLGSIGTFPHYSQDVQEEGFPAPVLTMAQQIATADAVVIVTPEYNYSVPGVLKNAIDWLSRVSPQPLAGKPVALVTASPGMIGGARAQYHLRQSLVFLDAYVLNRPEAMIGQVTGKVDAQTLELSDVATREFLARQLDALAALARTLSPRAIT
notes: Gh-ChrR, NAD(P)H-dependent FMN reductase from Gluconacetobacter hansenii ATCC 23769 (ZP_06834583); 193 native residues; codon-optimised synthetic gene in pJexpress411; Monomer 21.3 kDa (193 native residues plus a six-residue C-terminal poly-histidine tag); In the crystal 5-6 N-terminal and 7-9 C-terminal residues are not seen; also called putative chromate reductase; source: E. coli BL21(DE3), …
Q: What does the source list for B1?
A: Km (purified protein): 240 ± 70 µM; Vmax (purified protein): 0.75 µmol/min/mg; kcat (purified protein): 0.25 s⁻¹; kcat/Km (purified protein): 1000 M⁻¹ s⁻¹; Km [4]: 7 ± 1 µM; stoichiometry N [5]: 4

B2: Gh-ChrR (Novacetimonas hansenii ATCC 23769; R101A) (protein)
chain: B1 chain with R101A
Q: What does the source list for B2?
A: Km (purified protein): 1900 ± 600 µM; Vmax (purified protein): 0.24 µmol/min/mg; kcat (purified protein): 0.08 s⁻¹; kcat/Km (purified protein): 40 M⁻¹ s⁻¹

B3: Gh-ChrR (Novacetimonas hansenii ATCC 23769; S118A) (protein)
chain: B1 chain with S118A
Q: Which results are given for B3?
A: Km (purified protein): 600 ± 20 µM; Vmax (purified protein): 0.9 µmol/min/mg; kcat (purified protein): 0.3 s⁻¹; kcat/Km (purified protein): 500 M⁻¹ s⁻¹

B4: Gh-ChrR (Novacetimonas hansenii ATCC 23769; N85A) (protein)
chain: B1 chain with N85A
Q: What does the source list for B4?
A: Km (purified protein): 600 ± 100 µM; Vmax (purified protein): 0.16 µmol/min/mg; kcat (purified protein): 0.053 s⁻¹; kcat/Km (purified protein): 90 M⁻¹ s⁻¹
